# Laboratory results reported in patent publication US7071299B2, “Peptide and polypeptide inhibitors of complement C1s” (ZymoGenetics, Inc., priority 2000, dated 2006).
# Several values for one entry are separate records, joined by “and”; a condition that tells them apart may be missing. Equal values may be shown once.
# T1: Activated human C1s (Homo sapiens, UniProt P09871)
# T1 construct: purchased Calbiochem-Novabiochem Corporation; San Diego, Calif
# T1 sequence (P09871 16-437 limits assumed): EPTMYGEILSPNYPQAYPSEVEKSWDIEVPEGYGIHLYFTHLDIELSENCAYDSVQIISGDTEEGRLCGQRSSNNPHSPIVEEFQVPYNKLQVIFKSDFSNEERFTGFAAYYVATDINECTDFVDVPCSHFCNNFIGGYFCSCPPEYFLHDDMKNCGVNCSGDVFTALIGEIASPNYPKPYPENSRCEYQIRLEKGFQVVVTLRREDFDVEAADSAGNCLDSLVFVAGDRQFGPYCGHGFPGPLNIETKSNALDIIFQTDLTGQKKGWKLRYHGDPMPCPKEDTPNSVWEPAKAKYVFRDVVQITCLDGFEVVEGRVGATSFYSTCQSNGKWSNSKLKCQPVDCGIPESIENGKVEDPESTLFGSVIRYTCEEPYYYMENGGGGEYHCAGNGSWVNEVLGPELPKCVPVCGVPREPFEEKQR
# T1 sequence (P09871 438-688 limits assumed): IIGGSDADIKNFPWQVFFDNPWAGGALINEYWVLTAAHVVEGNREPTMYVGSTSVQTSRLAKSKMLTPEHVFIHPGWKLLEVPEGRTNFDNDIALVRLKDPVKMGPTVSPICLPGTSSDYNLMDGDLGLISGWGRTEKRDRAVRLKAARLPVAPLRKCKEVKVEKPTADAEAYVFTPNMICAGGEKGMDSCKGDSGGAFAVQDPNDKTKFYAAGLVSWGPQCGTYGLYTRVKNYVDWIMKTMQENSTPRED
# Target: T1, Activated human C1s
# Assay: C1s enzyme assay (chromogenic substrate Pefa-C1E, decrease in Vmax)
# Format: biochemical
# Conditions: Table 6, effect of posttranslational modifications on BD001 activity
# Procedure: C1s enzyme assays were performed in 96 well plates preincubated in the assay buffer for 30 minutes at room temperature. Activated human C1s (Calbiochem-Novabiochem Corporation; San Diego, Calif.); final assay concentration: 1.25 μg/ml), was incubated with samples in 50 mM Tris-HCl (pH 8) that contained 116 mM sodium chloride and 0.05% Polysorbate 80. The chromogenic substrate, Pefa-C1E (Centerchem, Inc.; Stamford, Conn.; final assay concentration: 0.4 mM), was added to the assay wells and the plate was read at 405 nm, 37° C., for 30 minutes at 20 second intervals on a SPECTRAmax PLUS plate reader (Molecular Devices Corporation; Sunnyvale, Calif.). Inhibition was determined as a decrease in Vmax, which is calculated as the maximum Δ milli-absorbance units/min over the assay period.
# Three types of post-translational modifications have been identified in BD001: (1) glycosylation at Asn^23 consisting of a fucosylated complex-type core; (2) sulfation of at least one of Tyr^117, Tyr^119, and Tyr^121; and (3) proteolytic cleavage after Arg^65. The first two modifications have been identified in native BD001 as well as recombinant BD001 expressed in Baculovirus. The third modification is seen in a fraction of the recombinant BD001 expressed in Baculovirus. […] The identity of each species was verified using mass spectroscopy, and protein concentrations were measured using absorbance at 280 nm. […]
molecule,measurement,value
"BD001 isolated from tissue: native leech protein BD001 (SEQ ID NO:1) isolated from the salivary complexes of the leech; inhibits C1s (protein, listed as Haementaria ghilianii, native, isolated from leech) AKKKLPKCQKQEDCGSWDLKCNNVTKKCECRNQVCGRGCPKERYQRDKYGCRKCLCKGCDGFKCRLGCTYGFKTDKKGCEAFCTCNTKETACVNIWCTDPYKCNPESGRCEDPNEEYEYDYE",IC50,4 nM and 4.7 nM
